The Human Domainome abundance scans (Beltran et al. 2025)

B1: Cell division cycle and apoptosis regulator protein 1, residues 625 to 674; numbered along this chain, Q8IX12 (parent)
chain: ISTPTHWSKLDPKTMKVNDLRKELESRALSSKGLKSQLIARLTKQLKVEE

Variants of: B1
Assay: abundance fitness (aPCA) (normalised: wild type 0, dead -1); higher = more abundant; growth selection in yeast, the domain comes from the species named
Settings: Homo sapiens

Abundance fitness of substitutions, site by site:
R21: I -0.006, H -0.199, E -0.541, A -0.192, G -0.603, L -0.215, K -0.117, F -0.419, W -0.53, M 0.036, V -0.106, P -0.682, D -1, T -0.155, Q -0.259, S -0.191, Y -0.256, C -0.039
T14: L -0.131, E -0.011, I 0.007, V -0.029, N 0.038, P -0.798, R 0.178, F -0.204, H 0.135, S -0.005, D -0.061, Y -0.05, M -0.013, A -0.019, K 0.257, Q -0.022, C -0.074
E25: P -1.02, A -0.443, I -0.274, Y -0.799, K 0.002, T -0.18, R -0.154, S -0.539, Q -0.097, M -0.076, D -0.581, F -0.568, V -0.155, W -0.304
K9: I -0.254, T -0.125, D -0.084, E -0.068, A -0.016, W -0.235, H -0.091, R 0.009, F -0.317, L -0.066, Q 0.04, N -0.136, V -0.129, Y -0.158, S -0.166, P -0.576, M -0.077, G -0.154, C -0.243
D11: C 0.093, S 0.051, N 0.054, H 0.074, M 0.028, T 0.218, G -0.335, P -0.738, V -0.038, I 0.066, W -0.109, K 0.154, R 0.078, Y -0.036, L -0.054, A 0.043, Q 0.072, E 0.071
V17: N 0.249, Y -0.054, M 0.065, D -0.114, L 0.026, C 0.115, P -0.182, A -0.093, Q -0.082, G -0.146, I 0.013, F -0.071, S -0.036, H -0.165, K 0.022, W -0.092, R -0.139
P12: G -0.655, W -0.488, C -0.223, A -0.142, H -0.865, Y -0.74, K -0.875, Q -0.749, T -0.207, I -0.324, N -0.965, F -0.762, L -0.189, M -0.141, E -0.754, R -0.89, S -0.665, D -1.02
N18: A 0.072, I 0.077, R 0.079, S 0.081, Q 0.085, P 0.072, H 0.042, V 0.05, W -0.015, Y -0.036, D -0.038, L 0.113, M 0.06, C 0.051, F -0.056, K 0.124, G 0.019
K13: A -0.094, F -0.308, D -0.16, Q -0.13, S -0.147, W -0.474, H -0.135, T -0.13, E -0.195, G -0.255, P -0.187, R -0.221, N 0.081, Y -0.23, M 0.002, I -0.052, L -0.241, C -0.302, V -0.04
E23: N -0.563, D -0.916, Q -0.228, T -0.672, W -0.661, P -0.805, R -1.07, M -0.965, H -0.48, L -0.913, F -0.737, S -0.617, V -0.924, C -0.677, G -0.904, K -1
L24: P -0.778, C -0.393, G -0.905, R -0.87, Y -1.01, H -0.742, N -0.991, Q -0.891, A -0.829, M -0.678, D -0.881, E -0.665, I -0.586, W -1.11, K -0.879, S -0.806, F -0.825, V -0.685, T -0.77
M15: G -0.94, Y -0.926, N -0.942, A -0.543, D -0.775, S -0.75, Q -0.679, P -0.83, F -1.02, H -0.996, I -0.711, W -0.899, E -0.949, V -0.745, K -0.668, L -0.172, R -0.758
S26: R 0.118, F 0.028, K 0.197, E 0.026, G 0.089, H 0.053, N 0.025, D 0.031, P -0.61, C 0.08, T 0.106, I -0.012, Y 0.044, W 0.047, Q 0.001, M 0.073, A 0.088, L 0.118
K22: I -0.065, R -0.023, N -0.097, E -0.242, D -0.239, H 0.024, P -0.491, G -0.233, Q -0.136, S -0.004, M -0.028, F -0.16, W -0.209, A -0.148, C -0.134
R27: D -0.747, C -0.776, A -0.713
K16: A -0.227, Y -0.153, L -0.061, F -0.191, P -0.15, V -0.228, R -0.173, N 0.033, I -0.127, T -0.142, E -0.066, C -0.048, M -0.24, S -0.011, G -0.059, D -0.068, W -0.354, H 0.061
S8: D -0.126, P -0.616, Q -0.395, A -0.081, Y -0.173, N -0.09, V -0.304, G -0.036, W -0.272, F -0.338, K -0.061, R -0.189, H -0.074, M -0.254, C -0.007, T -0.113, E -0.006, I -0.407
L10: E -0.704, P -0.606, W -0.953, Q -0.516, Y -0.709, S -0.577, C -0.338, A -0.474, H -0.701, N -0.516, F -0.535, G -0.562, R -0.593, V -0.231, M -0.107, I -0.203, D -0.748, K -0.538
L20: Q -0.621, W -0.833, M -0.115, S -0.859, T -0.727, C -0.416, N -1.08, A -0.618, G -0.89, H -0.752, D -0.741, P -0.899, I 0.136, Y -0.751, F -0.65, V -0.284, E -0.788
D19: G -0.196, Y -0.023, N 0.063, M 0.031, C -0.02, A -0.015, S 0.038, E -0.275, Q 0.033, P -0.334, I -0.044, K -0.33, F -0.035, L 0.021, H 0.045, V -0.167, T -0.047, R -0.073
